Drawing on paper PMC2490753, this text covers response above nonspecific control for 1 substance.

The target of the assay is YacG (E. coli) (UniProt P0A8H8). In words: SPR.
Sequence of UniProt P0A8H8 (P0A8H8 whole entry): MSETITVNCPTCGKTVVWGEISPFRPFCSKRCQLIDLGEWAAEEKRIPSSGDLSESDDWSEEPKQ

In turn, “GyrB subunit of E. coli DNA gyrase (from UniProt P0AES6 1-804) (natural protein)” displayed a response above nonspecific control at 1 uM GyrB of 92 RU.
